Experimental data from patent US7056679 (ANTYRA, dated 2006).
No end group written: not given here.

molecular target: T1, DGI-2 (UniProt Q15004 1-111, limits assumed); assay: phage ELISA, coated DGI-2
T1 construct: Soluble recombinant DGI-2 made by in vitro translation (RTS, pIVEX2.3-MCS vector) and coated on plates for the ELISA; vector tag not described; also called KIAA0101; DGI-2 polypeptide
T1 sequence (looked up): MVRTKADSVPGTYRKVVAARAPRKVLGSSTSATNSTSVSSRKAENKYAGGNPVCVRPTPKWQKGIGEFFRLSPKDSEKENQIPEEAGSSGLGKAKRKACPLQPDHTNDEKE
Procedure: For analysis of individual target binders, colonies were picked and phage prepared as described above using helper phage, M13KO7. Ninety-six-well microtiter plates were coated with 500 ng/well of specific target protein, 500 ng/well lactate dehydrogenase (LDH) irrelevant or non-specific target, 500 ng/well of positive control antibody raised against ETAG, and negative control of non-fat milk powder-PBS 2% at 4° C. overnight. Plates were then blocked with 350 microliters/well PBS containing 2% non-fat milk for 1 hr at room temperature. One hundred microliters per well of phage from isolated clones were added and plates were incubated at room temperature for 2 hr after centrifuging samples for 20 minutes at 3500 rpm at 4° C. The phage solution was then removed, and the wells were washed three times with PBS at room temperature. Antibody raised against M13 conjugated to horseradish peroxidase (Pharmacia) was diluted 1:3000 in PBS-Tween and added to each well (100 µl/well). Incubation was for 1 hr at room temperature, followed by washing with PBS-(0.5%) Tween 3 times as described. Color was developed by addition of ABTS solution (100 µl/well; Boehringer, Indianapolis, Ind.). Plates were analyzed at 405 nm. A clone was considered "positive" if the $A405$ of the well was $\geq$2-fold over background.

Binder	binding result
MGADTCMGGKMPFDQMFGAV (on M13 phage, pIII fusion with E-tag) [DGI-2-20F-PP-E10]	binds
TIDVARRFGYGWWDLWLDGD (on M13 phage, pIII fusion with E-tag) [DGI-2-20R-3-C3]	binds
EGQRVVFLFGALVAGLCWRDR (on M13 phage, pIII fusion with E-tag) [DGI-2-20F-PP-F3]	binds
VGQSSGDARPLANLFVFPFV (on M13 phage, pIII fusion with E-tag) [DGI-2-20F-PP-F12]	binds
VWAAWVEGSLLSPRQEPVRD (on M13 phage, pIII fusion with E-tag) [DGI-2-20R-4-G4]	binds
VCGQRVARMQLNKTIRKLDS (on M13 phage, pIII fusion with E-tag) [DGI-2-20F-PP-A6]	binds
RRFVRCSVPVALRSAVPVSV (on M13 phage, pIII fusion with E-tag) [DGI-2-20F-PP-A10]	binds
GWSDFVATGSWSGQVSAALN (on M13 phage, pIII fusion with E-tag) [DGI-2-20R-4-F120]	binds
VGHLLSRCAHHSPGMGASPYG (on M13 phage, pIII fusion with E-tag) [DGI-2-20F-PP-B11]	binds
SLLCVVCRPVSGGRALGGVP (not fully specified; cysteine pairing not given here, on M13 phage, pIII fusion with E-tag) [DGI-2-20F-PP-B42]	binds
RRGVCEIFTGWCVGQTNERP (not fully specified (bridges); cysteine pairing not given here, on M13 phage, pIII fusion with E-tag) [DGI-2-20R-4-H626]	binds
RISVGQCGTSRCGGGRRGGG (not fully specified; cysteine pairing not given here, on M13 phage, pIII fusion with E-tag) [DGI-2-20F-PP-D1]	binds
GGSLPVKSGQLVTCCTSKGG (on M13 phage, pIII fusion with E-tag) [DGI-2-20F-PP-F5]	binds
FRMWVQSCFWGQPGTGCGEG (not fully specified; cysteine pairing not given here, on M13 phage, pIII fusion with E-tag) [DGI-2-20R-3-D2]	binds
LLLPVRWRDAQPRSLLMEWI (on M13 phage, pIII fusion with E-tag) [DGI-2-20F-PP-F8]	binds
CGGWGAMWEAWVQGLNGAGC (not fully specified; cysteine pairing not given here, on M13 phage, pIII fusion with E-tag) [DGI-2-20R-3-D4]	binds
QMSRVAFSPGESWRRWVEGV (on M13 phage, pIII fusion with E-tag) [DGI-2-20R-3-A2]	binds
RSYPRLCKQKGGVIGRMLPG (on M13 phage, pIII fusion with E-tag) [DGI-2-20F-PP-B2]	binds
CYLSRLFRSGQGIGQFGHVE (on M13 phage, pIII fusion with E-tag) [DGI-2-20F-PP-A82]	binds
VWRDWVNGTVGLRNREKPGV (on M13 phage, pIII fusion with E-tag) [DGI-2-20R-3-A5]	binds
VVHTRAWGSWAYGFVLRNRG (on M13 phage, pIII fusion with E-tag) [DGI-2-20F-PP-F10]	binds
DRVARLATPTAGTMAAGSLGYERTVGCDSQDWFRCVVEGL (on M13 phage, pIII fusion with E-tag) [DGI-2-40F-3-D1044]	binds
LWRRWSEGQLLGDGELRGDG (on M13 phage, pIII fusion with E-tag) [DGI-2-20R-3-B52]	binds
VCSGGKGTWLEIPDRVRSST (on M13 phage, pIII fusion with E-tag) [DGI-2-20F-PP-A22]	binds
CCAWNGVGVGGLGWRVVVGP (on M13 phage, pIII fusion with E-tag) [DGI-2-20F-PP-H4]	binds
RGSLLLTLPRLSGAVGTAYG (on M13 phage, pIII fusion with E-tag) [DGI-2-20F-PP-B3]	binds

Binder	binding result
RQRSGGRWVVDRVTRVASTSP (on M13 phage, pIII fusion with E-tag) [DGI-2-20F-PP-B12]	binds
RDTMCGSVSWGIPGCEYSGM (not fully specified; cysteine pairing not given here, on M13 phage, pIII fusion with E-tag) [DGI-2-20R-4-G122]	binds
SVSGGGVFGTGGRVRHQVSG (on M13 phage, pIII fusion with E-tag) [DGI-2-20F-PP-C5]	binds
SAFGCPLPRALGGGGARFYA (on M13 phage, pIII fusion with E-tag) [DGI-2-20F-PP-E11]	binds
VVGYAQGDGLEGGLGSSRDGS (on M13 phage, pIII fusion with E-tag) [DGI-2-20F-PP-D8]	binds
LVIGQRSFLSACSLFDGFCV (not fully specified; cysteine pairing not given here, on M13 phage, pIII fusion with E-tag) [DGI-2-20R-4-H814]	binds
GHGAGDWAAELFVCPVAFLTGFAWR (on M13 phage, pIII fusion with E-tag) [DGI-2-20R-4-H2]	binds
DRHRAFVAEGLDGFRHSTGV (on M13 phage, pIII fusion with E-tag) [DGI-2-20F-PP-D4]	binds
LFRFSGTGMASLPCVGWHLV (on M13 phage, pIII fusion with E-tag) [DGI-2-20F-PP-B6]	binds
GRWDGWEVCGIWGADDCASG (not fully specified; cysteine pairing not given here, on M13 phage, pIII fusion with E-tag) [DGI-2-20R-4-H1]	binds
LFSATGCALMSGFCLGSDGS (not fully specified; cysteine pairing not given here, on M13 phage, pIII fusion with E-tag) [DGI-2-20R-3-C1]	binds
GASRVVDVGWRFWGKLWQRS (on M13 phage, pIII fusion with E-tag) [DGI-2-20F-PP-G5]	binds
PVYRVAMCRISVGCSAGAWF (not fully specified; cysteine pairing not given here, on M13 phage, pIII fusion with E-tag) [DGI-2-20F-PP-C12]	binds
WWREWVDGSLRGGGGTVLKD (on M13 phage, pIII fusion with E-tag) [DGI-2-20R-3-A122]	binds
VTGTRFRGFAVACVRMGTWH (on M13 phage, pIII fusion with E-tag) [DGI-2-20F-PP-F2]	binds
DGRGWGAMWMRWAEGLGADI (on M13 phage, pIII fusion with E-tag) [DGI-2-20R-4-G114]	binds
VSFAHDWGRWWYQWEVG (on M13 phage, pIII fusion with E-tag) [DGI-2-20R-4-G22]	binds
QLDCLVWGLPGLRCDRPLEQ (not fully specified (bridges); cysteine pairing not given here, on M13 phage, pIII fusion with E-tag) [DGI-2-20R-3-B10]	binds
TPVAISIPAGVCSTSVCGRD (not fully specified; cysteine pairing not given here, on M13 phage, pIII fusion with E-tag) [DGI-2-20F-PP-C11]	binds
LSLEGGWMWDTKGGDGGSAQ (on M13 phage, pIII fusion with E-tag) [DGI-2-20R-4-F93]	binds
GGDLGEQGVQLCPDVVRGGSL (on M13 phage, pIII fusion with E-tag) [DGI-2-20F-PP-A7]	binds
VSGVPDGSMRAAQLASGYWC (on M13 phage, pIII fusion with E-tag) [DGI-2-20F-PP-G2]	binds
RKGWGVFCIPGLRFCDWSDP (not fully specified; cysteine pairing not given here, on M13 phage, pIII fusion with E-tag) [DGI-2-20R-3-B4]	binds
SVTISTSCRTGCPAGYLRRD (not fully specified; cysteine pairing not given here, on M13 phage, pIII fusion with E-tag) [DGI-2-20F-PP-D2]	binds
VQSGRDLGGLLRGGTGTEASP (on M13 phage, pIII fusion with E-tag) [DGI-2-20F-PP-D3]	binds
SRELGKWGRLWQDWSSGNFS (on M13 phage, pIII fusion with E-tag) [DGI-2-20R-3-C11]	binds
